Measured values taken from patent US20160326237A1 (ANNEXON, published 2016).

Tests used:
[1] = biological target: T1, human C1q (human, UniProt P02745 23-245; P02746 28-253; P02747 29-245); experiment: BLI (OCTET)
T1 construct: Native C1q (about 460 kDa) holds several copies of each chain; also called hC1q; C1Q antigen

[2] = biological target: T2, mouse C1q (mouse, UniProt P14106 26-253); experiment: BLI (OCTET)
[3] = biological target: T1, human C1q; experiment: BLI (OCTET), C1q immobilised, antibody 2.0 ug/ml
[4] = biological target: T2, mouse C1q; experiment: BLI (OCTET), C1q immobilised, antibody 2.0 ug/ml

T2 sequence (chain, as listed by the source, chain 1 of 3): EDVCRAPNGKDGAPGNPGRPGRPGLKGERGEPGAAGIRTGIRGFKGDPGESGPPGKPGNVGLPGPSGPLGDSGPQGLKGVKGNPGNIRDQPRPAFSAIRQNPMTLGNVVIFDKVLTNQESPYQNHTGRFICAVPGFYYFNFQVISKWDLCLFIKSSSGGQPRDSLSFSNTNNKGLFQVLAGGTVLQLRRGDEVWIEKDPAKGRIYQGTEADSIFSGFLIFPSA
T2 sequence (P14106 26-253, chain 2 of 3): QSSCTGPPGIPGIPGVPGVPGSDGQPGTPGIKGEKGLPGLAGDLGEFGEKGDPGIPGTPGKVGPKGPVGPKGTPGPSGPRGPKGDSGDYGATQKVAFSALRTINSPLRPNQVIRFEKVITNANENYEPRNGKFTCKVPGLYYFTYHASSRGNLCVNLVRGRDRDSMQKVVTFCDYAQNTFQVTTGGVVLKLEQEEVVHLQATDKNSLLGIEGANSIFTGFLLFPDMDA
T2 sequence (chain, as listed by the source, chain 3 of 3): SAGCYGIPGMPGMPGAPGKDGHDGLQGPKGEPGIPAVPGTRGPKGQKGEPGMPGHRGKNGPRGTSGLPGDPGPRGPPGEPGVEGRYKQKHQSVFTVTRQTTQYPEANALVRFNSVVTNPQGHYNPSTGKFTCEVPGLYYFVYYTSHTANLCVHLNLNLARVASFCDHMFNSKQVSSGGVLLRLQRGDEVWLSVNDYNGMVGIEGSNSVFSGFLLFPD
T1 sequence (P02745 23-245 limits assumed, chain 1 of 3): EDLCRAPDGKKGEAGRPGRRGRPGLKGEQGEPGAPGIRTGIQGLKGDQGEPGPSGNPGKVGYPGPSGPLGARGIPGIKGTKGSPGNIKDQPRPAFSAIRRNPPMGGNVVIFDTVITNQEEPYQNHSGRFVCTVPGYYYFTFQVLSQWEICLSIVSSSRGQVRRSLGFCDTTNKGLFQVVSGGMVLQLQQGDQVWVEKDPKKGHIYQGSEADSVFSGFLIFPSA
T1 sequence (P02746 28-253 limits assumed, chain 2 of 3): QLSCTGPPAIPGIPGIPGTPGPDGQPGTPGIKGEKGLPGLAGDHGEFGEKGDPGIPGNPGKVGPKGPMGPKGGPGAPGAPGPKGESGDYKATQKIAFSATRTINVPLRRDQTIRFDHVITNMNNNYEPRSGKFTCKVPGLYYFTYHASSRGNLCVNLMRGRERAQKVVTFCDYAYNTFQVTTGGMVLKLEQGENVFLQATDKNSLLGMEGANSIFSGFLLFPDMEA
T1 sequence (P02747 29-245 limits assumed, chain 3 of 3): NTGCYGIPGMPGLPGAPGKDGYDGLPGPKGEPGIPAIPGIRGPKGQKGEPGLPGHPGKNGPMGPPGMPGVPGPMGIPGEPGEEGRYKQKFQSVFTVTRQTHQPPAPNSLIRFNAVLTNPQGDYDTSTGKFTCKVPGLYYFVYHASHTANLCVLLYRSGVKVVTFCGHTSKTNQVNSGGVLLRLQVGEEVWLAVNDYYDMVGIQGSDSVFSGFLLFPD

B1: murine anti-human C1q monoclonal antibody M1 (antibody)
chain 1: QVQLQQPGAELVKPGASVKLSCKSSGYHFTSYWMHWVKQRPGQGLEWIGVIHPNSGSINYNEKFESKATLTVDKSSSTAYMQLSSLTSEDSAVYYCAGERDSTEVLPMDYWGQGTSVTVSS
chain 2: DVQITQSPSYLAASPGETITINCRASKSINKYLAWYQEKPGKTNKLLIYSGSTLQSGIPSRFSGSGSGTDFTLTISSLEPEDFAMYYCQQHNEYPLTFGAGTKLELK
Kd [1]: < 100 pM
Kd [2]: < 100 pM
Kd [3]: 12.8 pM
koff [3]: 6.31e-05 s⁻¹
kon [3]: 5.18e+06 M⁻¹ s⁻¹
Kd [4]: 32.3 pM
koff [4]: 5.84e-05 s⁻¹
kon [4]: 1.81e+06 M⁻¹ s⁻¹
